Marks after values point to notes of the source that are not given here. Ends that are not written are not given here.
Columns and labels:
Trp repressor protein = Trp repressor protein (Escherichia coli, UniProt P0A881)
Description: The concentration of Trp repressor in these experiments was 20 μM; and in (B) the concentration of L-tryptophan in each SUPREX buffer was 200 μM.

[1] = SUPREX analysis of P22 Arc repressor, a homo-dimeric protein; type: physicochemical; settings: ΔGSUPREX adjusted to standard conditions (1 M dimer)
[2] = cited from earlier work
P22 Arc repressor = P22 Arc repressor (Salmonella phage P22, UniProt P03050); assay: SUPREX analysis of P22 Arc repressor in the absence and presence of cognate DNA; type: binding; settings: Arc dimer 12 μM, absence of DNA, 20 mM phosphate pH=7.4
From the text: . At this concentration the stability of the Arc dimer is less than that detectable by SUPREX. Even with exchange times of several minutes, there is no transition detected in the SUPREX curve. The transition midpoint is shifted off scale to the left; […].

[3] = SUPREX (H/D exchange detected by MALDI MS) stability of unpurified proteins in crude E. coli lysates; type: physicochemical
[4] = conventional CD denaturation curves of purified proteins; type: physicochemical; settings: purified protein, pH 8 buffer, FIG. 10A
Description: FIGS. 10A–10C depict a conventional denaturation curve by CD with purified protein in 0.15 M NaCl, 20 mM Na2HPO4, 20 mM CH3COONa, pH 8.

E. coli = type: cell-based
Description: . […] In FIG. 10B, E. coli placed in various concentrations of urea for 30 minutes were studied at 23° C. (closed circles) and 15° C. (open circles).
(closed circles) and 15° C. (open circles). 1 ml cultures of BL21-(DE3) E. coli were pelleted and resuspended in LB media containing various urea concentrations and incubated for 30 minutes at 15° C. and 23° C. The cells were then pelleted and resuspended in 1 ml of LB media, diluted 1000, plated on LB-agar plates, incubated at 37° C. overnight and the number of colonies were counted.

[5] = high sensitivity SUPREX analysis of RNase A (micro-concentration step); type: physicochemical; settings: high sensitivity protocol
Description: The high sensitivity SUPREX protocol outlined in FIG. 11 is similar to the SUPREX protocol disclosed above, with the exception that protein samples were subjected to a micro-concentration step after H/D exchange and prior to MALDI analysis. This micro-concentration step involved the use of a batch chromatography method utilizing 10 μL C18 SUPROTIPS™ from AmiKa (Columbia, Md.). It was preferred to quench the H/D exchange reaction with TFA (0.25% v/v) prior to binding the deuterated protein samples to the SUPROTIPS™. This facilitated preservation of the deuteration state of the protein. […]
(§1) For both normal and high sensitivity analyses 10 replicate MALDI mass spectra were collected and analyzed to determine an average change in mass relative to the fully protonated sample (ΔMass) at each [GdmCl]. […]
Values for ΔM0, ΔM∞ and ΔGf were obtained by fitting the ΔMass versus [GdmCl] data to equation 1 using SigmaPlot and a nonlinear least squares analysis. value of 8.47 s^−1 was used, which was calculated based on the data of Bai et al (Bai et al., (1993) Proteins 17: 75–86), using the program SPHERE (Zhang, Ph.D. Thesis, Structural Biology and Molecular Biophysics, University of Pennsylvania); and an m value of 3.1 kcal mol^−1M^−1 was used, which was previously determined in other GdmCl-induced equilibrium unfolding experiments on RNase A (Pace et al., (1990) Biochem. 29: 2564–72). […]

[6] = SUPREX analysis of RNase A, normal protocol; type: physicochemical
Description: Two different experimental protocols were employed for the SUPREX analysis of RNase A including one for normal analyses and one for high sensitivity analyses. H/D exchange reactions were initiated by combining 1 μL aliquots of a 100 μM solution of RNase A (fully protonated) in 20 mM sodium phosphate buffer (pH 7.4) with 9 μL volumes of 10 different deuterated exchange buffers containing 20 mM sodium phosphate (pD=7.4) and concentrations of GdmCl that varied between 0.5 and 4 M. After a specified exchange time (typically 65 minutes), a 1 μL aliquot of each exchange reaction was combined with 19 μL of a MALDI matrix solution. The MALDI matrix solution, which comprised an ice-cold, saturated, aqueous solution of SA containing 63% MeCN and 0.1% TFA (pH=3.0), effectively a quenched the H/D exchange reaction and prepared the sample for MALDI analysis. This matrix solution also included two internal mass standards, bovine ubiquitin (8566.1 Da) and hen egg lysozyme (14,303.7 Da). Subsequently, 1 μL of the quenched exchange reaction was spotted on a stainless steel MALDI plate and the solvent was evaporated under a gentle flow of air. […]
as §1

[7] = cited from earlier work; remark: listed apart in the source

Molecule: N[C@@H](Cc1c[nH]c2ccccc12)C(=O)O [L-tryptophan]
- ΔGBinding (Trp repressor protein): -3.8 kcal/mol

Molecule: P22 Arc repressor: P22 Arc repressor, a homo-dimeric protein (MKGMSKMPQFNLRWPREVLDLVRKVAEENGRSVNSEIYQRVMESFKKEGRIGA; also: homo-dimeric protein; UniProt P03050 1-53, looked up)
- standard ΔG value [1]: 11.3 ± 0.2 kcal/mol
- previously reported ΔG value ([2]; conventional CD denaturation studies (Bowie et al., 1989)): 11.0 kcal/mol
- maximum ΔGSUPREX value (P22 Arc repressor): < 4.0 kcal/mol

Molecule: λ6–85: monomeric form of the N-terminal domain of λ repressor, wild type
- ΔGf (kcal/mol) SUPREX [3]: -5.0 ± 0.4 kcal/mol
- stability by CD denaturation (linear extrapolation method) [4]: 6.16 ± 0.13 kcal/mol
- ΔGf (kcal/mol) CD ([2]; 25° C., purified protein, published values): −4.4 ± 0.2^b kcal/mol
- previously reported experimental m value ([2]; measured from CD denaturation curves): 2.1±0.1 kcal mol^−1 M^−1

Molecule: NC(N)=O [urea]
- viability of E. coli cells (E. coli): does not perturb the viability of the cells

B1: RNase A: bovine pancreatic ribonuclease A (type I-A) (protein, UniProt P61823 27-150, looked up)
Ribonuclease pancreatic: KETAAAKFERQHMDSSTSAASSSNYCNQMMKSRNLTKDRCKPVNTFVHESLADVQAVCSQKNVACKNGQTNCYQSYSTMSITDCRETGSSKYPNCAYKTTQANKHIIVACEGNPYVPVHFDASV
- average ΔGf value and standard deviation ([5]; 3 replicate SUPREX analyses): -12.0 ± 0.5 kcal/mol
- ΔGf from one SUPREX curve ([5]; standard error of 0.2): -12.4 kcal/mol
- ΔGf from one SUPREX curve ([6]; FIG. 12B, standard error of 0.2): -12.9 kcal/mol
- average ΔGf value and standard deviation ([6]; three replicate SUPREX analyses): -12.4 ± 0.4 kcal/mol
- m value ([7]; GdmCl-induced equilibrium unfolding (Pace et al., 1990)): 3.1 kcal mol^−1M^−1
- ΔGf by conventional fluorescence denaturation ([7]; Pace et al.): -9.24 ± 0.64 kcal/mol

— patent publication US7148071B2, “Quantitative, high-throughput screening method for protein stability” (Duke University, priority 2000, dated 2006)
